This note sets out measurements from paper PMC9692666, “The Inhibitory Effects and Cytotoxic Activities of the Stem Extract of Sarracenia purpurea against Melanoma Cells and the SsbA Protein” (Plants, 2022).

Where two headings read alike, the source gives them in different places.

Data set [1] addresses T1, SaSsbA (Staphylococcus aureus, UniProt A0A0D1JHQ1).
T1 construct: gene ssb; tetramer in crystal
T1 sequence (A0A0D1JHQ1 1-167): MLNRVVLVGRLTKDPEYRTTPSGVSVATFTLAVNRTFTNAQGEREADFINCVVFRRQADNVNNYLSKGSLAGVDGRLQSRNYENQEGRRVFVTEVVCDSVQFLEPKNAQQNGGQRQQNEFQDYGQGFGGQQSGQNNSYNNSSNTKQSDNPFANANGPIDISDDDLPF
In words: EMSA inhibition of ssDNA binding.

The target in data set [2] is T2, SaSsbA (Staphylococcus aureus) (UniProt A0A0D1JHQ1).
T2 sequence: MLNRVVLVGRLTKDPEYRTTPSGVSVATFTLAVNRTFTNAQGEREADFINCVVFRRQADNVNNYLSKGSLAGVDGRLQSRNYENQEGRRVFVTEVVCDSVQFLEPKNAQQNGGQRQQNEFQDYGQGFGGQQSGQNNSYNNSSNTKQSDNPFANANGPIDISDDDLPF
In words: EMSA. Particulars: EMSA: 40 mM Tris-HCl pH 7.5, 50 mM NaCl, 37 C, 60 min, 30 fmol/uL DNA (30 nM); 8% native PAGE in TBE. In general terms: A gel shift assay detects complexes by their altered migration in electrophoresis.

Data set [3] has as its target T3, SaSsbA (Staphylococcus aureus, UniProt A0A0D1JHQ1 1-167). In words: EMSA; EMSA: 40 mM Tris-HCl pH 7.5, 50 mM NaCl, 37 C, 60 min, 30 fmol/uL DNA (30 nM); 8% native PAGE in TBE. The note with it: protein: recombinant; chain copies: 4; label: 5' biotin; single strand.
The target in data set [4] is T3, SaSsbA. Put plainly: EMSA; no shift up to 10 uM protein; EMSA: 40 mM Tris-HCl pH 7.5, 50 mM NaCl, 37 C, 60 min, 30 fmol/uL DNA (30 nM); 8% native PAGE in TBE. Particulars: protein: recombinant; chain copies: 4; label: biotin on PS4 (strand 1); blunt.

Consider `O=C1c2c(O)cc(O)cc2O[C@H](c2ccc(O)c(O)c2)[C@H]1O` [dihydroquercetin], for which the IC50 at SaSsbA [1] (read-out: no inhibition at 1000 μM) is over 1000 µM.

Regarding `O=C1c2c(O)cc(O)cc2O[C@H](c2ccc(O)cc2)[C@H]1O` [dihydrokaempferol], at SaSsbA [1] (read-out: IC50), the IC50 was 750 ± 62 µM.

Turning to “CCCGAATTCGGATAGCTCGGTACCCTTTTTTTTTTTTTTTTTTTTTTTTT / GGGTACCGAGCTATCCGAATTCGGG [PS4/PS3-3'-dT25]”, the K half in data set [2] is 940 nM.

As to `O=c1c(O)c(-c2cc(O)c(O)c(O)c2)oc2cc(O)cc(O)c12` [myricetin], at SaSsbA [1] (read-out: no inhibition at 300 μM), the IC50 is over 300 µM.

As for TTTTTTTTTTTTTTTTTTTTTTTTTTTTTTTTTTT (ssDNA) [dT35], the “apparent K (half saturation)” value in the data set with SaSsbA [3] is 360 ± 20 nM.

B1: dT59 (ssDNA)
DNA: TTTTTTTTTTTTTTTTTTTTTTTTTTTTTTTTTTTTTTTTTTTTTTTTTTTTTTTTTTT
For the molecule B1, in the data set with SaSsbA [3], the “apparent K (half saturation)” value was 240 ± 10 nM.

On to TTTTTTTTTTTTTTTTTTTTTTTTTTTTTT (ssDNA) [dT30], for which the “apparent K (half saturation)” value with SaSsbA [3] is 460 ± 30 nM.

As to TTTTTTTTTTTTTTTTTTTT (ssDNA) [dT20], in the data set with SaSsbA [3], the “apparent K (half saturation)” value stood at 1770 ± 110 nM.

B2: PS4/PS3 (dsDNA)
DNA 1: GGGTACCGAGCTATCCGAATTCGGG
DNA 2: CCCGAATTCGGATAGCTCGGTACCC
B2: the binding result with SaSsbA [4] is “no binding”.
